Measured values published in the DeepSol protein solubility set.

Experiment: soluble on expression in E. coli; label from the status in PepcDB or PDB records

Question: With “MNLRSRLVNATERAVLFQIFKDVQNDPEKYDNAVEAICESIDYFGKFLTDSEYLTQIKPILDTQCPTKSIICFSKCLTKVSTDINTTTFRDVITMLDWLKYVVEKSLTSAICSSLKVKETDVSAVQLYREFASACSNIPEKVSNCCAKALSGEHVKYINTVKWIFKMNLVQGIQKAMLLAHDDIVTAAPFTSFYGSGGPYMKTVAEIISSGRNIDITNKDGLLVQMIEWIGSLNNFDSQWRRMMFLIFQEPTYQGIQVHESLLTTLFLISKSDQILKRCIEATDLTGTLKRVVMVKLPFQRVLKRKTIEILINFVYRTKEQFAIQLLETSVKIWSDLNYAKSAPESQERHIVRMILYLVHLFRTCSSIDWESLFLNSMDGVHCRMSMLPMYVQSGIFVNQALCKQATKHRSKTHGSDEQPPETLEENKFVSSEVGKIWFEEMTSILEHGFNSSTVKDSERVRETANEITKDDSGEEFEETNAQRLQNNKDSAAITSKNNLRLDSDDDEDFPDYQVNESEKIFKNLEIGEEPKNKVTPPAYIADAFEMLLEKEKYEVFEAAFFNITNLINRRPIGFPQIAEKLFIRILHLQNNFGTPKFKETVDEIAVACITQRPEIVPSVVRLIIAPGQGFSIKQRLLHYIHNAADGMGALDKKLEECVMAQQLRIGGPTLSIILHRTINTDYDDEDEDPHRLLVPEWRRMVDARIAANTRRIGTTREPPRAGVVNRLAQAAKYMFYPLLVLPRGENASLLGKDSDLLASLIMVASMVYVRCGVCPQIHRMSSELISYATPHRFSENAKLRTACIIAHLNVTTLLPGDLMDELFDVPALIGWFDWANSVLVNASSSQLEKDMTRQFGHSVTKHLQRYHPAVLQHQDV” as the sequence, how does the “soluble on expression in E. coli” value read?
Answer: not soluble

Question: For “MNMAEVSKNQVEKALETVIYPGSGKNIVALGMVSEIFIADAKAYFSITVPADKASEMEPLRLAAERAAKSVEGIAGAVVALTADRKPGQQQPAPAGPTPARPAAATGRPAAAPGRPTPQPGSSKVGVPGVRAIIAVASGKGGVGKSTTAVNLALGLQALGLKVGMLDADIYGPSLPRLLKISGRPKQQEDRIILPMENYGLKVMSMGFLVDEEAAMIWRGPMVQSALMQMLREVAWGELDVLVLDMPPGTGDAQLTIAQQVPLAGAVIVSTPQDLALLDARKGITMFRKVEVPLLGVIENMSYFIAPDTGARYDIFGHGGAKAEAERIGVPFLGEVPLTISIREMSDAGTPVVVAEPDGPQAAIYREIAEKVWARMGADERKAAPKIVFELEHHHHHH”, which “soluble on expression in E. coli” value is on record?
Answer: not soluble

Question: With “MNMKATALTATTVAIASLLPSMGETNVQKANAEQLSNIKTGYVKVDQVALHTEDNVKSTSIDTIRFNTKVNIIETTNGWYKVSVHNKVGYVQKDAILLKNKLQSNDQYIVNANALNVRSEPNLESSILDVLPNGKFITVQEDQGEWYKISHNGQTGYVQKAFISNGSQPLVKGITVQNNTKYTVATPNLNVRSTASTSSALLGSLQNGTQVQVVETVGTWYKIRFGTGYGYVAKHYVVQNQPQAKTDQPSSIPAAFKFPAQGRISSTFDIRWEQMHYGIDIAAPGNVSIQAAAAGKVVKSYYSASYGNVVFIAHQINGKLYTTVYAHMKDRTVQAGDQVQTGQLIGHMGNTGHSYGQHLHCELHNGEWNFEKTDAVNPLPYLVRLEHHHHHH” as the sequence, how does the “soluble on expression in E. coli” value read?
Answer: soluble

Question: With “MNMPHKFNQYNKSIPVNKHVIELLENDPSLLPSDIAKQLSISEVEVVKSLPKEMVTMVSGLKTQEILEGLVGFGDVTTIVHSFGSIFEVKAPFPKGKIAHGYYNLMGREGQLHGHLKLDLIQDIALISKPFRGTESHYFGFFNHDGHSVFKIYLGRDKKRQLIPEQVEAFNVLKQEYKLEHHHHHH” as the sequence, how does the “soluble on expression in E. coli” value read?
Answer: soluble

Question: Which “soluble on expression in E. coli” value does the source give for “MNMQKLRIELGEETNDELYDLLLLADPSKDIVDEYLERGECYTAWAGDELAGVYVLLKTRPQTVEIVNIAVKESLQKKGFGKQLVLDAIEKAKKLGADTIEIGTGNSSIHQLSLYQKCGFRIQAIDHDFFLRHYDEDIFENGIQCRDMVRLYLDLLEHHHHHH” here?
Answer: soluble

Question: For “MNMTIFIVFVICLSCVSLSLGTETCPPLTTIKPPDDIQKSLFYPSNWNDDLPTPNFAAGQKCSFKVIGPVVPQIRTVHAKSPPLALNAMSSTNPIVVKSDTHVSFLPIPQNYNYLDPILRSVQVYDGPTIDSTHLGTLYQAIASNNSLVSSGKYLTFYSLSWYYSVRNIVILQDYSDIQNYASYQAFTCHNSCGVSLDASKGTAAVLLFNSLSFVNQLSMSDNNSTLSVYTNSISDDNKLSDYSYSNSQTNIPQKFVGNYTIFVLDKGQANLSLKTYTPNNAWWSYVFYGQRGFFASPNFGTSDSDQNLCDAVSINGKHPAKITYTVDRSAIVGPAVLTVSIGGNITIYDVTNLPGPDPISAIGMSIAVNYESNGVISTGAFVSFEFQKSATSNGILFTIVLTICMAIFF”, which “soluble on expression in E. coli” value is on record?
Answer: not soluble

Question: With “MNNDLAPHLDIALRHSPPGLAATPIPRVDICVGQGFTEKAPCLYRSMICFILQGSKRVAINDNLLSYDSEHYLISALDLPLIGQILDAEDGQPYVAVSLVLDPALLAVLAASMPAVREREQKGIGITINPMSAPLRDTLLRLLSLLDTPDDIPILAPMVERELLYRLLQGPQGRLL” as the sequence, how does the “soluble on expression in E. coli” value read?
Answer: not soluble

Question: With “MNNENKTHIADSVLDVIVVGGGINGAGIAADAAGRGLTVGLYEASDFASATSSASSKLIHGGLRYLEHYEFRLVSEALAEREVLLAKAPHIAKPMRFRLPHRPFLRPAWMIRAGLFLYDNLGKRTTLPASHSVDLAASGLLKSEITKGFEYSDCWVDDARLVILNAMAAEKNGAEVKNYCRVEKAIRVDNIWHVTVFDVQANVRFERKARALVNAAGPWVKQFFDDSLEDESPRNIRLVKGSHIVVPKIHNEEQAYILQNKDNRIVFVIPYMEDFSIIGTTDVEYKGDPRKVEISEEEVNYLIDVVNQHFVDQIKRDDVVWTYSGVRPLCDDESDSPQAITRDYTLELEQELDQAPLLSIFGGKLTTYRKLGETAMKMLNPYFAKMGTPWTRNVALPGGDFDYPRHQLVDNICCKHPWLAKETVTRYVNQFGTLTWTLLEGIECQSDMGELFAQGVYQAEIDYLIKHEFAKNAEDVLWRRTKLGLYLTEEEEKQIALYIESYLSHRHKVKLQNVILEHHHHHH” as the sequence, how does the “soluble on expression in E. coli” value read?
Answer: soluble

Question: With “MNNGYSPTSSNQQNVSVEHDIIMRGRRIIDITGVKQVESFDSEEFLLETVMGFLTIRGQNLQMKNLDVEKGIVSIKGKVNEMLYIDENQGEKTKGFFSKLFKLEHHHHHH” as the sequence, how does the “soluble on expression in E. coli” value read?
Answer: not soluble

Question: For “MNNIENVDQKLIENLANLMSSEVRAKIYIYLRKYNKSTVDEIAGGTGIYPSTVRESILDMYNTGYVSREKMDKEGLGKKPYLYTAAAPSEIVRKISKNIQEKLNDLIMVDRRIESKELKIPFVPVKIVVDEKYRD”, which “soluble on expression in E. coli” value is on record?
Answer: not soluble

Question: For “MNNKYQMGVSTNLKYKGISLGIDFDIRQGGVMYSRTKDINYFTGNAIQTAYNDRNPLIVPNSVNKIVNGENVTYVENTTPITSSNIYKYWGDGGSDMGSCFLVDKSYVKLRSVVLGWDLPKRWLAKTPFQAVKVSAYGNNLFVWTPSSNTFIDPEMTSFGNDLEGNYGEYTANPSSRRFGFNLMVKF”, which “soluble on expression in E. coli” value is on record?
Answer: not soluble

Question: Which “soluble on expression in E. coli” value does the source give for “MNNLPLLNDLRVFMLVARRAGFAAAAEELGVSPAFVSKRVSLLEQTLNVMLLHRTTRRVTITEEGERIYEWAQRILQDVDEMMDELSDVRQVPQGTLRIISSFGFGRRVVAPALSALALQYPQLELRFDVQDRLVDLVNEGVDLDIRVGDDIAPNLIARQLAANHRVLCASPQFLARHAPPKQLSDLAALPCLVIKERDHPFGVWQLHSKEGQHAIKVTGPLSSNHGEIVHQWCLDGQGIALRSWWDVRENIASGHLVQVLPDYWQPANVWAVYVSRLATSAKIRTTVEFLRHYFQLHYPQHEPTASAVGRGD” here?
Answer: not soluble

Question: Which “soluble on expression in E. coli” value does the source give for “MNNNLLIIAGPTAVGKSDLSVDLAKKLNGEIISVDSMQIYKYMDIGSAKISKEEMGGIPHYLIDFVDPSKEFSVAEFKDLTTEKIKDIQSRGKLPILVGGTGLYINSIICNMNFAESDKDEEYREELEKIANEHGNEYLHEMLKDIDLESYNSIHFNNRKRVIRALETYKLTGKPFSSFKAKNSIYETPYNIYYYVLNMDRAKLYDRINKRVDIMFEKGLLEEVKNLKAMGLTDDMQSMKGIGYKEVLYYLDGKISLEQCIEMIKQGSRNYAKRQLTWFRKDPRAIFIDKDTFASEEDISSKIINDIINSMAGDPNSLEHHHHHH” here?
Answer: not soluble

Question: With “MNNSSFFGNRLKEERKKLKMTQAEIAEKCGVSGRMWGDYERGISQPKAELFFQFEKVGIDVQYVMHGRRGETAVMPSETLNAEEQELLVLFREAAAADREMILMVARRAEKKAQTALGKVSNG” as the sequence, how does the “soluble on expression in E. coli” value read?
Answer: not soluble

Question: Which “soluble on expression in E. coli” value does the source give for “MNNTDYMIHLLARTIKTGKDELITPLIIQLSDMQVSRDLLEKHNLPALVAEYAPFNEAAKSLSKSVLAWKYEEIAQEMPQLLKEFVQIAKEKRVPEEFMVRLVTSLMDFDDLDTVRSCLEILNHFEFSLDEYEELGIYRKATQFEGQFRDADEIIAKVDVLLLQDEILEEDEAEVEADDLIGHAEENEEEENDFSDDESVISETESGIYTDEELELEDHFEAVRKEDRKDQVMTEICMMLLAGYIRSGNSEVISAAIKFTWAFDYSLEMYQKYDIQNLIYNFGVHNDDAELLMNHIKELQARELFNENRKFFKRFLRTCMEEKTITDSVLSYLKGFLENGDDYMVSCTLKFLLGMPITLSQFKTSHVEACLENLESGPSAQLGFMLKMKIQKLEHSEKS” here?
Answer: not soluble

Question: With “MNNTPKLKLGIVAVSRDCFPMELSENRRKAVVDAYNGEIFECLTTVENEKDMRKALKEVKSAGVNALVVYLGNFGPETPETLIAKEFDGPVMFAAAAEERGDNLVNGRGDAYCGMLNASYNLALRNINAYIPEYPVGTASDVANMINEFVPVATALIGLKNLKIISFGPRPQDFLACNAPIKQLYNLGVEIEENSELDLFASFNEHENDSRIPDVVKDMEEELGEGNKMPGILPKLAQYELTLLDWAEEHKGSREYVVFANKCWPAFQTQFGCVPCYVNSRLTARGIPVSCEVDIYGALSEYIGTCVSQDVVTLLDINNTVPKDMYESEIKSKFNYTLKDTFMGFHCGNTAACKLTSGTMKNQMIMARALEPNQEPNITRGTLEGDIVPGEITFFRLQSNADSELTAYVAEGEVLPVKTRSFGSIGVFAIPQMGRFYRHVLIENRFPHHGAVAFGHFGKAIYNLFRYLGVKEVGFNRPKEMLYKTENPFELEHHHHHH” as the sequence, how does the “soluble on expression in E. coli” value read?
Answer: soluble

Question: For “MNNYLKNLKEVFARIFRPNNRKSTRTYLQRSISYWRRNSIYLDNIYNKISTDTAQLRFKHVKITRNPGGVDSMVWYEHSDLAEVLTVSPNPLEVPVVFWSNVTRAMLRDGVAVVVPRWKNGRLVEIWLAKKTVTWTAESVELMLDDVAVELPLTDVWVFENPKLNVTAQLNQITELIDINLNALTEKLSDGNSSLRGFLKLPTKAADEHLKQQARDRVDSMLDLAKNGGIAYLEQGEEFQELSKDYSTASKEELEFLKSQLYNAHGINEKLFTCDYTEEQYRAYYSSVMKLYQRVYSEEINRKYFTKTARTQGNKLLVFFDMADMISFKDLVEGGFKSKYAGLMNSNEFRETYLGLPGYEGGEVFETNLNAVRIGAEESE”, which “soluble on expression in E. coli” value is on record?
Answer: not soluble

Question: With “MNNYSGDIVFMSGGNEEDQLAQCQAYVQRHNIQQLVKEAIVVLCIHKPDNPVLFLKDHFEKLNEQRAQEGGNPDAADDDDIIVEPPKRSGGRRTGISAEPIKEDDTEYKKVVIPKDDATRRSLESAMRKNLLFAHLEEDEQKTMYDAMFPVEKSAGETIIEQGEEGDNFYVIDKGTVDVYVNHEYVLTINEGGSFGELALIYGTPRAATVIAKTDVKLWAIDRLTYRRILMGSVTKKRKMYDEFLSKVQILADLDQWERANVADALERCDFEPGTHVVEQGQPGDEFFIILEGEANVLQKRSDDAPFDVVGHLGMSDYFGEIALLLDRPRAATVVAKTHLKCIKLDRNRFERVMGPVREILKRDVSNYNSYVKLMT” as the sequence, how does the “soluble on expression in E. coli” value read?
Answer: soluble

Question: Which “soluble on expression in E. coli” value does the source give for “MNPGKPMPLVVHGWTIFAHPLFLAQIEVLIQQVEAHKQKDPVGFVKKNASKRLAAITKLAFDIILQDPARPEYRQGGTLGDDYKHWFRAKFFQQYRLFFRYHTLSKVIVFAWVNDEDTRRAYESSDDAYRMFRKMLENGLPPDDWNQLLAEARAEGQRLQQFAARWW” here?
Answer: not soluble
